# Results published in patent EP1175513B1, “MinK-RELATED GENES, FORMATION OF POTASSIUM [sequence] AND ASSOCIATION WITH CARDIAC [sequence]” (The University of Utah Research Foundation, priority 1999, dated 2000).
# B1: rMiRP1 (other)
# chain: MTTLANLTQTLEDAFKKVFITYMDSWRRNTTAEQQALQARVDAENFYYVILYLMVMIGMFAFIVVAILVSTVKSKRREHSQDPYHQYIVEDWQQKYRSQILHLEDSKATIHENLGATGFTVSP
# Tests used:
# [1] = human, in vivo, po
# Procedure: To test the hypothesis that MiRP1 mutants cause cardiac arrhythmia, we screened a panel of 20 patients with drug-induced arrhythmia and 230 patients with inherited or sporadic arrhythmias and no mutations in their KVLQT1, HERG, SCN5A or KCNE1 genes.
# Q9E-hMiRP1. […] The patient is a person with a history of high blood pressure, non-insulin dependent diabetes and stroke. […] The patient was admitted to the hospital with pneumonia and treated with 7 doses of intravenous erythromycin, 500 mg every 6 hours and then switched to oral clarithromycin, 500 mg every 12 hours.
# [2] = target: T1, channels formed with Q9E-hMiRP1 (Homo sapiens, UniProt Q12809); assay: Clarithromycin blockade of channels expressed in CHO cells; conditions: effect of clarithromycin (Fig. 9C)
# [3] = target: T1, channels formed with Q9E-hMiRP1; assay: in vitro; conditions: cho cells
# [4] = target: channels formed with wild type hMiRP1 (Homo sapiens, UniProt Q12809); assay: Clarithromycin blockade of channels expressed in CHO cells; conditions: effect of clarithromycin (Fig. 9C)
# HERG = HERG (human, UniProt Q12809 1-1159); assay: cell-based or functional assay
# T1 sequence (Q12809 whole entry): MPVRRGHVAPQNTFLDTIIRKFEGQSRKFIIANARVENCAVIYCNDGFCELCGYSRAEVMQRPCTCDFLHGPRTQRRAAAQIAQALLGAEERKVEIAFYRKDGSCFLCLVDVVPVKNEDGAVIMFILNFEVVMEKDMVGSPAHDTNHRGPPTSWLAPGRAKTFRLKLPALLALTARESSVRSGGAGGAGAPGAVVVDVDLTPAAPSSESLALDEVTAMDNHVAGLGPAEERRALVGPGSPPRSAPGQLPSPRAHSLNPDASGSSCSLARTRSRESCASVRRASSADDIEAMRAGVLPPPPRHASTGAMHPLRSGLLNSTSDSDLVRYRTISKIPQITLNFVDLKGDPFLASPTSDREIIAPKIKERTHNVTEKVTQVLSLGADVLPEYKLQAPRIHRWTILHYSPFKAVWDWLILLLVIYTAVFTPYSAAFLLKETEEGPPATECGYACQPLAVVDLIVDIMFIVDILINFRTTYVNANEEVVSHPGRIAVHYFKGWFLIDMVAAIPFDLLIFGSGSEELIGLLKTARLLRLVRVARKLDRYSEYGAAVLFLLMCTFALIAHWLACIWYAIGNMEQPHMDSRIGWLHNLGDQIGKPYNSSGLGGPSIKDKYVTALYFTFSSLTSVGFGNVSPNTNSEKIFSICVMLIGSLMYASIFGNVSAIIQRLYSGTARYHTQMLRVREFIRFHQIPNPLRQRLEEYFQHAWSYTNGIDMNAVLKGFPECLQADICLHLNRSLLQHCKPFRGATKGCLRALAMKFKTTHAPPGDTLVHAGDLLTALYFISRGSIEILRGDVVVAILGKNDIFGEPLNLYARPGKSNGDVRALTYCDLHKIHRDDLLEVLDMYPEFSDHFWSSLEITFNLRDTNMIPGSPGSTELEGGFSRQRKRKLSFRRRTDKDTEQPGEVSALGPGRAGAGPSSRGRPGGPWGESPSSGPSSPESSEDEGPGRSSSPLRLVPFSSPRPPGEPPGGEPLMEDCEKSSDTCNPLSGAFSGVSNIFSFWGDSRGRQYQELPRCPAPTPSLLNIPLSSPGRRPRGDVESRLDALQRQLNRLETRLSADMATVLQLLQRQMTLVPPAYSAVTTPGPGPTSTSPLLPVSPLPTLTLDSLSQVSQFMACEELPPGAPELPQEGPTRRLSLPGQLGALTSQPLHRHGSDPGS
# T1 sequence (Q9Y6J6 with tags, fused parts or gaps Q9E partner): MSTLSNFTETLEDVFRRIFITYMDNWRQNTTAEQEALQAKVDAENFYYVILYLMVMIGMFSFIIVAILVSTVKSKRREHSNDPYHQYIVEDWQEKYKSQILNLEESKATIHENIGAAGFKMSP
# Chain of channels formed with wild type hMiRP1 (Q12809 whole entry): as the sequence (Q12809 whole entry) above
# Chain of channels formed with wild type hMiRP1 (Q9Y6J6 whole entry partner): as the sequence (Q9Y6J6 with tags, fused parts or gaps Q9E partner) above, with E9Q counted along it
Molecule,activation V1/2 mV (HERG) [mV],deactivation ratio If/(Is + If) (HERG),deactivation τf s (HERG) [ms],"deactivation τs, s (HERG)","activation V1/2 in 1 mM Ca^2+, 1 mM KCl solution (HERG) [mV]",other results
CC[C@H]1OC(=O)[C@H](C)[C@@H](O[C@H]2C[C@@](C)(OC)[C@@H](O)[C@H](C)O2)[C@H](C)[C@@H](O[C@@H]2O[C@H](C)C[C@H](N(C)C)[C@H]2O)[C@](C)(OC)C[C@@H](C)C(=O)[C@H](C)[C@@H](O)[C@]1(C)O [clarithromycin],,,,,,arrhythmia developed [1]: TdP and VF; slope factor [2]: no change; selectivity ratio [3]: 3; slope factor [4]: no change
M54T-hMiRP1 (from UniProt Q9Y6J6 1-123),-21,0.81,37,266,,faster deactivation against wild type hMiRP1 channels (HERG): 3 fold
Q9E-hMiRP1 (from UniProt Q9Y6J6 1-123),-12,0.8,100,750,-12,
T8A-hMiRP1 (from UniProt Q9Y6J6 1-123),-29,0.83,100,590,,
wild type human MiRP1 (from UniProt Q9Y6J6 1-123),-21,0.82,80,483,-20,faster deactivation against HERG alone (τf at -120 mV) (HERG): 3 fold; unitary conductance (oocytes) (HERG): 8 pS
B1,,,,,,"acceleration of single-channel deactivation (HERG): 2.3 fold; increase in deactivation rate against HERG alone (HERG): 7 fold; increase in deactivation rate, plasma-like solution (HERG): ~2 fold"
